Measurements reported in the nanobody polyreactivity screen of Harvey et al. (2022).

Assay: yeast display, Sf9 membrane polyspecificity reagent, FACS + sequencing; frameworks hold sequencing errors
Outline: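 Synthetic nanobody libraries on Saccharomyces cerevisiae BJ5465 were galactose-induced for 36–48 hours, stained 1 hour at 4 °C with 10% biotinylated, detergent-solubilized Sf9 membrane reagent and enriched on streptavidin microbeads. FACS then separated cells into low and high (top ~1%) gates by anti-HA (expression) and streptavidin (reagent binding) fluorescence. Genes were colony-PCR amplified, MiSeq 2 × 250 sequenced and CDR-length filtered. A clone's polyreactivity label is that of its gate of origin.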

Sequence	polyreactivity (PSR sort gate)
QVKLVESGGGLVQAGGSLRLTCAASGIIFSWYAMGWYRQAPGKERELVAAISWSGGRTYYADSVKGRFTISRDNAKNSFYLQMNSLKPEDTAVYYCAAERNLFSHWEARYFWGQGTQVTVSS	high polyreactivity
QVQLVESGRGLVQAGVSLRLSCAASGFIFYDYAMGWYRPAPGTERELVAAISSGGSTNYADSVKGLFTISRDNAKNTVYLQMNSLKPEDTAVYYCAADVRSYATWKRDYDYWGQGTQVTVSS	low polyreactivity
QVQLVESGGGLVQAGGSLRLSCAASGSTFDRNAMGWYRQAPGKERELVASITWTGGSTYYADSVKGRFTISRDNAKNTVYLQMNSLKPEDTAVYYCNADLLYLDYLYGLDYWGQGTQVTVSS	high polyreactivity
QVQLVESGGGLVQAGGSLRLSCAASGSTFGDYVMGWYRQAPGKERELVATITDSGGSTYYADSVKGRFTISRDNAKNTVYLQMNSLKPEDTAVYYCNKDFSVEVYDTAYNYYSYRYGYWGQGTQVTVSS	low polyreactivity
QVQLVESGGGLVQAVGSLRLSCAASGFIFAQNARGGSRPAPGKERELVAAIYGSGVRTYYADSVKGRFTISRDNAKNTVYLQMNSLKPEDTAVYYCAKDTYLQIYQYGYWGQGTQVTVSS	high polyreactivity
QVQLVDSGGGLVQAGGSLRLSCAASGRTFTYYAMGWYRQAPGKERELVASISTTGRTYYADSVKGRFTITRDNAKNTVYLQMNSLKREDTAVYYCNASRVRRWNDYYKKFDYWGQGTQVTVSS	high polyreactivity
QVQLVESGGGLVQAGGSLRLSCAASGRIFRGNAMGWYRQAPGKERELVARITGNDGDTYYADSVKGRFTISRDNAKNTVYLQMNSLKPEDTAVYYCATDTSSYRRRYYYWGQGTQVTVSS	low polyreactivity
QVQLVDSGGGLVQAGGSLRLSCAASGRIFPWYAMGWYRQAPGKEMELVAAINWRAGLTYYADSVKGRFTISRDYAKNTVYLQMNSLKPEDTAVYYCNARSGRGQAYGYWGQGTQVSVSS	high polyreactivity
QVQLVESGGGLVQAGGSLRLSCAASGYTFGRYAMGWYSQAPGKERELVAAITKSGGRTSYADSVKGRFTISRDNEKNTVYLQMTSLKPEDTAVYYCNKVRFQPYWVVYATGDYWGQGTQVTVSS	high polyreactivity
QVQLVESGGGLVQAGGSLRLSCAASGFTFVYYAMGWSRQAPGKERELVAAISRSGATTYYADSVKGRFTISRDNAKNTVYLQMNSLKPEDTAVYYCAAVYRHPRENWPDTRYGYWGQGTQVTVSS	high polyreactivity
QVQLVESGGGLVQAGGSLRLSCAASGITFNSYVMGWYRQAPGKERELVAAIRWSGGRTYYADSVKGRFTISRDNAKNTVYLQMNSLKPEDTAVYYCNRVTRSHVDYWGQGTQVTVSS	high polyreactivity
QVQLVESGGGLVQARGSLRLSCAPSGFTFEAYAMGWYRQAPGKERELVAAISSSDTTSYADSVKGRFTISRDNAKNTVYLQMNSLKREDTAVYYCAADDWYTGYDYWGQGTQVTVSS	high polyreactivity
QVHLVESGGGLVQPGGSLRLSCAASGFPFYINAMGWYRQAPGTERELVAAITIGSTTYYADSVKGRCTISRDNAKNTVYLQMNSLKPEDTAVYYCAAEVWRDYTSRLYDYWGQGTQVTVSS	low polyreactivity
QVQLVESGGGLVQAGGSLRLSCAASGFTFRYYAMGWYRQAPGKERELVAAISWSGASTYYADSVKGRFTISRDNAKNTVYLQMNSLKPEDTAVYYCAADIPGTYYYWGQGTEVTVSS	high polyreactivity
QVQLVESGGGLVQAGGSLRLSCAASGRTFSTYAMGWYRQAPGKERELVAAIDSGGGSTYYADSVKGRFTISRDNAKNTVYLQMNSLKPEDTAVYYCARDHYAPLARLRYDYWGQGTQVTVSS	low polyreactivity
QVQLVESGGGLVQAGGSLLLSCAASGSIFIYYTIGWYRQARGKARELVAAITRSGGDTYYADSVKGRFTISRDNAKNTVYLQMNSLKPEDTAVYYCAADSWLRYGTYEYWGQGTQVTVSS	high polyreactivity
QVQLVESGGGLVQAGGSLRLSCAASGFTFYRYAMGWYRQAPGKERELVAAISKRGGNTYYADSVKGRFTISRDNAKNTVYLQMNSLKPEDTAVYYCAADFATWDAKPYDYWGQGTQVTVSS	high polyreactivity
QVQLVESGGGLVQAGGSLRLSCAASGITLYRYTMGWDRQAPGTEREFVAAISRSGGSTYYADSVKGRFTISRDNEKNTVYVQMNSLKPEDTAVYYCAARWYEKTTRPYGSWGQGTQVTVSS	high polyreactivity
QVQLVESGGGLVQAGGSLRLSCAASGSTFGRYAMGWYRQAPGKARELVAAITTSGGRTRYADSVKGRFTISRDNAKNTVYLQMNSLKPEDTAVYYCAASGAQGPDYDYWGQGTQVTVSS	low polyreactivity
QVQLVESGGGLVQAGGSLRLSCAASGRIIYTYAMAWYRQAPGKERELVAAISWSGGSTYYADSVKGRFTISRDNAKNTVYLQMNSMKPEDTAVYYCNAAYYGYENLSKRGYWGQGTQVTVSS	high polyreactivity
QVQLVESGGGLVQAGGSLRLSCAASGGTFDTYAMGWYRQAPGKERELVAGIDWSGGSTYYADSVKGRFTISRDYAKNTVYLQMNSLKPEDTAVYYCAADFYYPSQMDYWGQGTQVTVSS	low polyreactivity
QVQLEESGVGLVQAGGSLRLSCAASGSIIHYNAMGWYRKAPGKERELVASISSGGRTYYADSVKGRFTISRDNAKNTVYLQMNSLNQEDTAVYYCAAEYYQTTYVWWTYDYSWGLGTQVTVSS	low polyreactivity

Sequence	polyreactivity (PSR sort gate)
QDQLVESGGGLVQAGGSLSLSCAASGRTFTVYAMGWYRQAPGKERELVAAISGSSGSTDYADSVKGRFTISRDNAKNTVYLQMNSLKPEDTAVYYCAKASSATRYVQLRQDYDYWGQGTQVTVSS	low polyreactivity
QVQLVESGGGLVQAGGSLRLSCAASGRIFDPYAMGWYRQAPGKERELVAAINIGGGTNYADSVKGRFTISRDNAKNTVYLQMNSLKPEDTAVYYCAAPVPAYQFYYRLKSFGRRYDHWGQGTQVTVSS	low polyreactivity
QVQLVESGGGLVQAGGSLRLSCAASGFTFIYYAMGWYRQAPGTERELVAAISTSGDSTYYADSVKGRFTISRDNAKNSVYLQMNSLKPEDTAVYYCNADWYPYLHEYDYWGQGTQVTVSS	low polyreactivity
QVQLVESGGGLVQAGGSLRLSCAASGSIFTGYAMGWYRQAPGKERELVAAIRTRGGSTYYADSVKGRFTISRDNAKNTVYLQMNSLKPEDTAVYYCAKRYYGWYGNFDYWGQGTLVTVSS	high polyreactivity
QVQLVESGGGLVQAGGSLRLSCAASGSIFSSYAMGWYRQAPGKEREFVAAINNNDGGTDYADSVKGRFTISRDNAKNTVYLQMNSLKPEDTAVYYCAADYTRYVQTTYDYWGQGTQVTVSS	low polyreactivity
QVQLVESGGGLVQAGGSLRLSCAASGFIFPLYTMGWYRQAPGKERELVAAISWIGGRTYYADSVKGRFTISRDNAKNTVYLQMNSLKPEDSAVYYCAKDPTGGGYGYDYWGQGTQVTVSS	low polyreactivity
QVQLVESGVGLVLAGGSLRLSCAASGRTFWSYAMGWYRKAPGKERELVAAITWSGTSTDYAVSVKGRFTISRDNAKNRVYLLMKSLKPEDTAVYYCAAIVYGQYRSRYYYWGQGTEVTVSS	high polyreactivity
QVQLVESGGGLVQAGGSLRLSCAASGITFYYYVMGWYRQAPGKERELVAAIDSGDSTYYADSVKGRFTISRDNAKNTVYLQMNSLKPEDTAVYYCAVDYEADNELNGPDQEYGRDSWGQGTQVTVSS	low polyreactivity
QVQLVESGGGLVQAGGSLRLSCAASGSIFRVYAMGWYRQAPGKERELVARISWSDDGTYYADSVKGRFTISRDNAKNTVYLQMNSLKPEDTAVYYCNADSYYYPYDYWGQGTQVTVSS	low polyreactivity
QVQLVESGGGLVQAGGSLRLSCAASGFTFRGYAMGWYRQAPGKERELVASITYRGGSTYYADSVKGRFTISRDNAKNTVYLQMNSLKPEDTADYYCNAGFGGRRRQDAFIGTSIYDYWGQGTQVTVSS	low polyreactivity
QVQLVESGGGLVQAGGSLRLSCAASGRIFSRYAMGWYRQAPGKERELVAVISRSGADTYYADSVKGRFTISRDNAKNTVYLQMNSLKPEDTAVYYCNAYSARRPHPMGYDYWGQGTQVTVSS	high polyreactivity
QVQLVESGGGLVQAGGSLRLSCAASGSTSYVYAMGWYRQAPGKEREFVAAIRSSGGDTYYADSVKGRFTISRDNAKNTVYLQMNRLKPEDSAVYYCNDRYATAVARFGYWGQGTQVTVSS	high polyreactivity
QVQLVESGGGLDQAGGSLRLSCAASGRIYYNYAMGWYRQSPVKERELVAAISGSGGSTYYADSVKWRLTISRDNAKNTVYLLMNSLKPEDTAVYYCSTSGPQYYSRNFDYWGQGTQVTVSS	low polyreactivity
QVQLVESGGGLVQAGGSLRLTCAASGRTFKYYAMGWYRQAPGKERELVAAITRSGGNTYYADSVKGRFTISRDNAKNTVYLQMNSLKPEDTAVYYCAKRLGYRYPTYDYWGQGTQVSVSS	high polyreactivity
QVQLVESGGGLVQAGGSLRLSCAASGFTFLFNTMGWYRQAPGKERELVAGISRGGSTTYADSVKGRFTISRDNAKNTVYLQMNSLKPEDTAVYYCAARTRYNWRGYDYWGQGTQVTVSS	high polyreactivity
QVQLVESGGGLVQAGGSLRLSCAASGITFAPYAMGRYRQAPGKERELVAAIRGSTTSTYYADSVKGRFTISRDNAKNTVYLQINSLKPEDTAVYYCAAAGWKGLGRFYSWGQGTQVTLSS	high polyreactivity
QVQLGESGGGLVQAGGSLRLSCAASGNIFYRYAMGWYRQAPGKERELVAAITSDGSTYYADSVKGRFTISRDNAKNTVYLQMNSLKPEDTAVYYCAARRGTGSYSYRYPYGYDYWGQGTQVTVSS	low polyreactivity
QVQLVESGGGLVQAGGSLRLSCAASGRIFHFYAMGWYRQAPGKERELVASITWRGGRTYYADSVKGRFTISRDNAKNTVYLQMNSLKPEDTAVYYCAADFRSGFSSSTTPVQSDWGQGTQVTVSS	low polyreactivity
QVQLVESGGGLVKAGGSLRLSCAASGRIFDYNAMGWYRQAPGKERELVAAISYSGGGTYYADSVKGRFTISRDYAKNSVYFQMNSLKPEDTAVYYCAKPYYQYYYISYDYWGQGTQVTVSS	low polyreactivity
QVQLVESGGGLVPAGGSLRLSCAASGFIFRYNTMGWYRQAPGKERELVAAITSGDSTYYADSVKGRFTISRDNAKNTVYLQMNSLKPEDTAVFYCAAAAYDSNGRYYYWGQGTQVSVSS	high polyreactivity
QVQLVESRWRFVQAGGSLRLSCAASGSIFADYAMGWYRQAPGKERELVAAITFSGGSTYYADSVKGRFTISRDNAKNTVYLQMNSLKPEDTAVYYCASRWRYRYYSWGQGTQVTVSS	high polyreactivity
